This is an account of results in paper PMC10173203 (Science translational medicine, 2021).

This test concerns the target HA of A/Michigan/45/2015 H1N1 virus (Influenza A virus A/Michigan/45/2015 …, UniProt A0A1J0CXU0, strain). As to the kind of experiment: ELISA. (In general: In an ELISA, binding on a coated surface is turned into a signal by an enzyme label.)

B1: 047–09 4B06 mAb (human IgG1) (antibody, V domains shown)
VH: EVQLLESGGGLVQPGGSLRLSCAASGFIFGHFAMTWVRQAPGKGLEWLSAISGGGLNTYYAESVKGRFTMSRDNSKNTLYLQMGSLRAEDAAVYYCARFDSSGYNYVRGMVVWGQGTAV
VL: DIQMTQSPSSLSVSIGDRITITCQASQDIKNYLGWYQHKPGKAPKLLIYHVSNLEAGVPSRFSGSGSGTDFTFTISSLQPEDIGTYYCHQCYNLPYTFGQGTKVEIK
B1: the binding result was “binds”.
